According to patent US20040253247A1 (Genentech, published 2004):
Bridges are numbered along the chain shown (N, C = ends). Where no end group is shown, it is not given here. code n = not defined here

T1: ovalbumin (UniProt P01012 2-386)
T1 sequence (looked up): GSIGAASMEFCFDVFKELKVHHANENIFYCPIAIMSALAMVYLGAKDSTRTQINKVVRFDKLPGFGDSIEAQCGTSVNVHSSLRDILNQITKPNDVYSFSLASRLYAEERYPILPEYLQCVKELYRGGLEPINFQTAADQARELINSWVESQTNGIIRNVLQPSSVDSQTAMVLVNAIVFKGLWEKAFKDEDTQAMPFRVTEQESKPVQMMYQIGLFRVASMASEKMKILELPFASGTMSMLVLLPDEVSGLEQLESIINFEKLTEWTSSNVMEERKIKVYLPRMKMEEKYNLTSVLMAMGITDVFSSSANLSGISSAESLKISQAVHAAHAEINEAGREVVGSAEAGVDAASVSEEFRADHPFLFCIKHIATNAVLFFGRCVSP

B1: phage clone GEEDCAWHLGELVWCTDVED (peptide)
peptide: GEEDCAWHLGELVWCTDVED
notes: M13/gIII phage display; Secondary Optimization
B2: phage clone KEASCAWHLGELVWCSEVEE (peptide)
peptide: KEASCAWHLGELVWCSEVEE
notes: as for B1
B3: phage clone RVEDCAYHLGELVWCTEGDE (peptide)
peptide: RVEDCAYHLGELVWCTEGDE
notes: as for B1
B4: phage clone EVADCSWHLGELVWCTEGEF (peptide)
peptide: EVADCSWHLGELVWCTEGEF
notes: as for B1
B5: phage clone KEADCAWHMGELVWCSEMEG (peptide)
peptide: KEADCAWHMGELVWCSEMEG
notes: as for B1
B6: phage clone GEQDCSYHMGELVWCTTVDG (peptide)
peptide: GEQDCSYHMGELVWCTTVDG
notes: as for B1
B7: phage clone WVDCAYHLGELVWCSTFEE (peptide)
peptide: WVDCAYHLGELVWCSTFEE
notes: M13/gIII phage display; Secondary Optimization; printed with 19 residues
B8: phage clone EVEDCAYHLGELVWCSDLEG (peptide)
peptide: EVEDCAYHLGELVWCSDLEG
notes: as for B1
B9: phage clone EQADCAWHLGELVWCTPMVF (peptide)
peptide: EQADCAWHLGELVWCTPMVF
notes: as for B1
B10: phage clone RVADCAWHMGELVWCSELEV (peptide)
peptide: RVADCAWHMGELVWCSELEV
notes: as for B1
B11: phage clone WVEDCAWHMGELVWCTKVDE (peptide)
peptide: WVEDCAWHMGELVWCTKVDE
notes: as for B1
B12: phage clone WEEDCAWHLGELVWCAEFDE (peptide)
peptide: WEEDCAWHLGELVWCAEFDE
notes: as for B1
B13: phage clone READCAWHLGELVWCSERDL (peptide)
peptide: READCAWHLGELVWCSERDL
notes: as for B1
B14: phage clone EEASCAYHLGELVWCDAFDV (peptide)
peptide: EEASCAYHLGELVWCDAFDV
notes: as for B1
B15: phage clone GEADCSYHLGELVWCNDFEE (peptide)
peptide: GEADCSYHLGELVWCNDFEE
notes: as for B1
B16: phage clone EEPDCSWHLGELVMCTPMEV (peptide)
peptide: EEPDCSWHLGELVMCTPMEV
notes: as for B1
B17: phage clone EEPDCSWHLGELVWCTPIEV (peptide)
peptide: EEPDCSWHLGELVWCTPIEV
notes: as for B1
B18: phage clone GEPDCAWHLGELVWCTPMVF (peptide)
peptide: GEPDCAWHLGELVWCTPMVF
notes: as for B1
B19: phage clone GVRNCAYHLGELVWCTPMEF (peptide)
peptide: GVRNCAYHLGELVWCTPMEF
notes: as for B1
B20: phage clone GEASCAYHLGELVWCDEGEG (peptide)
peptide: GEASCAYHLGELVWCDEGEG
notes: as for B1
B21: phage clone AEADCAWHLGELVWCTKVEE (peptide)
peptide: AEADCAWHLGELVWCTKVEE
notes: M13/gIII phage display; ALA Scan on Phage
B22: phage clone WEADCAWHLAELVWCTKVEE (peptide)
peptide: WEADCAWHLAELVWCTKVEE
notes: as for B21
B23: phage clone WEADCAAHLGELVWCTKVEE (peptide)
peptide: WEADCAAHLGELVWCTKVEE
notes: as for B21
B24: phage clone WAADCAWHLGELVWCTKVEE (peptide)
peptide: WAADCAWHLGELVWCTKVEE
notes: as for B21
B25: phage clone WEADCAWHLGELVWCTAVEE (peptide)
peptide: WEADCAWHLGELVWCTAVEE
notes: as for B21
B26: phage clone WEPDCAWHLGELVWCTKVEE (peptide)
peptide: WEPDCAWHLGELVWCTKVEE
notes: as for B21
B27: phage clone WEADCAWHLGELAWCTKVEE (peptide)
peptide: WEADCAWHLGELAWCTKVEE
notes: as for B21
B28: phage clone WEAACAWHLGELVWCTKVEE (peptide)
peptide: WEAACAWHLGELVWCTKVEE
notes: as for B21
B29: phage clone WEADCAWHLGEAVWCTKVEE (peptide)
peptide: WEADCAWHLGEAVWCTKVEE
notes: as for B21
B30: phage clone WEADCAWHLGELVWCTKAEE (peptide)
peptide: WEADCAWHLGELVWCTKAEE
notes: as for B21
B31: phage clone WEADCAWALGELVWCTKVEE (peptide)
peptide: WEADCAWALGELVWCTKVEE
notes: as for B21
B32: phage clone WEADCAWHLGELVWCTKVAE (peptide)
peptide: WEADCAWHLGELVWCTKVAE
notes: as for B21
B33: phage clone WEADCAWHLGELVACTKVEE (peptide)
peptide: WEADCAWHLGELVACTKVEE
notes: as for B21
B34: phage clone WEAACSWHLGELVWCTKVEE (peptide)
peptide: WEAACSWHLGELVWCTKVEE
notes: as for B21
B35: phage clone WEADCAWHLGELVWCAKVEE (peptide)
peptide: WEADCAWHLGELVWCAKVEE
notes: as for B21
B36: phage clone WEADCAWHLGALVWCTKVEE (peptide)
peptide: WEADCAWHLGALVWCTKVEE
notes: as for B21
B37: phage clone WEADCAWHAGELVWCTKVEE (peptide)
peptide: WEADCAWHAGELVWCTKVEE
notes: as for B21
B38: RB-R8 (peptide)
peptide: QGLIGDICLPRWGCLWGDSV
modifications: not fully specified (bridges); printed as Gln-Gly-Leu-Ile-Gly-Asp-Ile-Cys-Leu-Pro-Arg-Trp-Gly-Cys-Leu-Trp-Gly-Asp-Ser-Val; cysteine pairing not given here
notes: phage clone, Library RB
B39: RB-B8 (peptide)
peptide: HSQMEDICLPRWGCLWGDEL
modifications: not fully specified (bridges); cysteine pairing not given here
notes: phage clone, Library RB
B40: RB-H1 (peptide)
peptide: QRHPEDICLPRWGCLWGDDD
modifications: not fully specified (bridges); cysteine pairing not given here
notes: phage clone, Library RB
B41: RD-R2 (peptide)
peptide: DTCADLVRLGLECWA
notes: phage clone, Library RD
B42: HBC-H1 (peptide)
peptide: DSEVCYFPGICWSGT
notes: phage clone, Library HBC
B43: SA09 (peptide)
peptide: Ac-EDICLPRWGCLWEDD-{code n}
modifications: disulfide 4-10 (inferred); reading uncertain; also: printed as Glu-Asp-Ile-Cys-Leu-Pro-Arg-Trp-Gly-Cys-Leu-Trp-Glu-Asp-Asp
notes: synthesized peptide
B44: SA04 (peptide)
peptide: DICLPRWGCLW-{code n}
modifications: disulfide 3-9 (inferred); reading uncertain; also: printed as Asp-Ile-Cys-Leu-Pro-Arg-Trp-Gly-Cys-Leu-Trp
notes: synthesized peptide
B45: SA07 (peptide)
peptide: QGLIGDICLPRWGCLWGDSV-{code n}
modifications: disulfide 8-14 (inferred); reading uncertain; also: printed as Gln-Gly-Leu-Ile-Gly-Asp-Ile-Cys-Leu-Pro-Arg-Trp-Gly-Cys-Leu-Trp-Gly-Asp-Ser-Val
notes: synthesized peptide
B46: SA05 (peptide)
peptide: MEDICLPRWGCLWED-{code n}
modifications: disulfide 5-11 (inferred); reading uncertain; also: printed as Met-Glu-Asp-Ile-Cys-Leu-Pro-Arg-Trp-Gly-Cys-Leu-Trp-Glu-Asp
notes: synthesized peptide

Molecular target: T2, IgG-Fc (UniProt P01857-1 108-330 = IgG part, limits assumed)
T2 construct: domain: IgG-Fc; also called biotinylated-IgG-Fc; biotin-IgG-Fc
Test: phage ELISA, M13/gIII display

Binder | EC50 [nM]
B1 | 52
B2 | 130
B3 | 63
B4 | 54
B5 | 66
B6 | 210
B7 | 9
B8 | 82
B9 | 8
B10 | 44
B11 | 70
B12 | 44
B13 | 47
B14 | 77
B15 | 156
B16 | 14
B17 | 15
B18 | 7
B19 | 10
B20 | 386

Molecular target: T2, IgG-Fc
Test: phage ELISA, M13/gIII display, ALA scan

Binder | EC50 [nM]
B21 | 20
B22 | 12
B23 | 798
B24 | 34
B25 | 10
B26 | 36
B27 | 4670
B28 | 55
B29 | 1890
B30 | 8
B31 | 139
B32 | 4
B33 | 3380
B34 | 10
B35 | 101
B36 | 11
B37 | 56

Molecular target: T1, ovalbumin
Test: phage ELISA, photograph of the plate

Binder | binding result
B38 | no binding
B39 | no binding
B40 | no binding
B41 | no binding
B42 | no binding

Molecular target: mouse albumin (mouse, UniProt P07724 25-608)
Test: SA08b binding assay: competition with biotinylated SA08b for immobilized albumin
Description: (§1) Plates were blocked using Blocker Casein (Pierce Chemical, Rockford, Ill.) for 1 hr, at 25° C. […] The amount of HRP bound was measured using ABTS/H₂O₂ substrate and monitoring the change at 405 nm.

Sequence of mouse albumin (P07724 25-608 limits assumed): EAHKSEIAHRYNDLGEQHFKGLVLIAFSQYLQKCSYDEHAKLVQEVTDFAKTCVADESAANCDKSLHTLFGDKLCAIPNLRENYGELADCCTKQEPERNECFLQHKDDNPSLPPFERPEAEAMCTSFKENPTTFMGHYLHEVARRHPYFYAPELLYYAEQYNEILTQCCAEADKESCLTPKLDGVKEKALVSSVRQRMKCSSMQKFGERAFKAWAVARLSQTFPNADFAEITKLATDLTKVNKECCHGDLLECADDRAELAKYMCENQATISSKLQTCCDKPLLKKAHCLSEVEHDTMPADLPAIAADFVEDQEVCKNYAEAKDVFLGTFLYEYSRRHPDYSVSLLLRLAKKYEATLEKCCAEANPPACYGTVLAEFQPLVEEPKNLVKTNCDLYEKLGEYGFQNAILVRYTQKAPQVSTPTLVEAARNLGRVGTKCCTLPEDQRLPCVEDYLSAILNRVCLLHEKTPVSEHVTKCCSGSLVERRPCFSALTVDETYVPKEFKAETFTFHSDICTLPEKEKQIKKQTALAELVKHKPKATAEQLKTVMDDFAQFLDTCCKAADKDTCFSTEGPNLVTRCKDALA

Binder | IC50 [nM]
B43 | 6
B44 | 40
B45 | 6
B46 | 6

Molecular target: T3, rabbit albumin (rabbit, UniProt P49065 25-608)
Test: as above
Description: as §1

T3 sequence (P49065 25-608 limits assumed): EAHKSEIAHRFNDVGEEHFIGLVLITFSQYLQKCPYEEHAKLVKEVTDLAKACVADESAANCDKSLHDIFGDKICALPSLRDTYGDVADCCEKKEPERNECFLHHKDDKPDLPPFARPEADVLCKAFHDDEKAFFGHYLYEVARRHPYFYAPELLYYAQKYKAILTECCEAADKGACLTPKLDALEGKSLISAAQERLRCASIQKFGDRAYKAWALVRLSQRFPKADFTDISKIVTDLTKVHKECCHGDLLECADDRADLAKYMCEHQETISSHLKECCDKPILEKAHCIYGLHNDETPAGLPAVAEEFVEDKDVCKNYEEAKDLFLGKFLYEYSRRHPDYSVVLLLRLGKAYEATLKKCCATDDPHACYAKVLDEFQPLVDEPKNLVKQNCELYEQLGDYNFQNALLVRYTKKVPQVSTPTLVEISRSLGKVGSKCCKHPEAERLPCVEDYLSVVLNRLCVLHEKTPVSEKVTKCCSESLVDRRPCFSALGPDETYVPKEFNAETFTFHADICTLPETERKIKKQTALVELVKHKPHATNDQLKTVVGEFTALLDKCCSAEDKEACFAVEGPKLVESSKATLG

Binder | IC50 [nM]
B43 | 1690
B44 | 8540
B45 | 30
B46 | 804

Molecular target: T4, rat albumin (rat, UniProt P02770 25-608)
Test: as above
Description: as §1

T4 sequence (P02770 25-608 limits assumed): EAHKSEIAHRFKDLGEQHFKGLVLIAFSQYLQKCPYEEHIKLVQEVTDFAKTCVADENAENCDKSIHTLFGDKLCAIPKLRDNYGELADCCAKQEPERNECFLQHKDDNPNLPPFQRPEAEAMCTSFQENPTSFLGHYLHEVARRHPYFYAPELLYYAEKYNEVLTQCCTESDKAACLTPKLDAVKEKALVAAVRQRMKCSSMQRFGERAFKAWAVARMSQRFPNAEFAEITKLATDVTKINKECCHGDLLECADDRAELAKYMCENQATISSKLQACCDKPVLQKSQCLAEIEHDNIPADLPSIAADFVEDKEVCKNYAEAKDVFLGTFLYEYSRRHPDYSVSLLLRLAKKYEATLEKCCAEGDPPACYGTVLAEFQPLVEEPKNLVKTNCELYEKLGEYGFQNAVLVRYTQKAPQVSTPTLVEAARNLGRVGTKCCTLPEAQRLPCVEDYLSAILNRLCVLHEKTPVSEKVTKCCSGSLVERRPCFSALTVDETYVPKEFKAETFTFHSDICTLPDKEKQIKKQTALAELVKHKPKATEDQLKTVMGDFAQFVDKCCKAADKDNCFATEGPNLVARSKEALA

Binder | IC50 [nM]
B43 | 258
B44 | 787
B45 | 35
B46 | 161

Molecular target: human albumin (human, UniProt P02768 25-609)
Test: phage ELISA
Description: (§2) Phage ELISA—Phage clones (˜10¹¹ phage) were added to plates coated with rat, rabbit or human albumin. The microtiter plate was washed with wash buffer and bound phage were detected with HRP/Anti-M13 Conjugate. The amount of HRP bound was measured using ABTS/H₂O₂ substrate and monitoring the change at 405 nm.

Binder | binding result
B41 | no binding

Molecular target: T3, rabbit albumin
Test: phage ELISA
Description: as §2

Binder | binding result
B41 | no binding
B42 | no binding

Molecular target: T4, rat albumin
Test: phage ELISA
Description: as §2

Binder | binding result
B42 | no binding
